Measured values reported in paper PMC6151752, “Characterization, Function, and Transcriptional Profiling Analysis of 3-Hydroxy-3-methylglutaryl-CoA Synthase Gene (GbHMGS1) towards Stresses and Exogenous Hormone Treatments in Ginkgo biloba” (Molecules : A Journal of Synthetic Chemistry and Natural …, 2017).

Substrate: CC(=O)CC(=O)SCCNC(=O)CCNC(=O)[C@H](O)C(C)(C)COP(=O)(O)OP(=O)(O)OC[C@H]1O[C@@H](n2cnc3c(N)ncnc32)[C@H](O)[C@@H]1OP(=O)(O)O
Test: initial rate versus acetoacetyl-CoA concentration, Michaelis-Menten fit
Type: biochemical, Ginkgo biloba
Conditions: acetoacetyl-CoA varied 20-100 μM (Km lies far above the range); pH, temperature and acetyl-CoA concentration not given
Source text: initial rate versus acetoacetyl-CoA concentration, Michaelis-Menten fit on GbHMGS1

B1: GbHMGS1 (Ginkgo biloba) (protein)
chain: MASHPENVGILAMDIYFPSTCVQQDALETFDGVSKGKYTIGLGQDCMAFCMDLEDVISMSLTVVSSLLDKYGIDPKRIGRLEVGSETVIDKSKSIKTWLMQIFEECGNSEIEGVDSTNACYGGTAALLNCVNWVESRSWDGRYGLVVSTDSAVYAEGPARPTGGAAAVAMLIGPNAPIVFESKYRGTHMSHAYDFYKPNLASEYPVVDGKLSQTCYLMGLDSCYKRFCNRFEEGEGRQFSLSDADYVAFHSPYNKLVQKSFARLLFNDFSRHASSVGKDAQEKLEPYAGLSDEDSYSSRELEKVSQQVARPLYDVKVQPSTLLPKQVGNMYTASLYAAFASIIHNEHDTLEGQRVLMFSYGSGLASTMFSLKIREGQHPFTLTNIADVMDVSSKLDSRHVLSPEDFMVNMKLMETLYGAKDFISCSDHNLLRSGTFYLTQVDSMYRRFYAQKVASPDDTHEKVKLANGIIHDQL
Km: 689 ± 32.6 µM
Vmax: 0.0371 µM/min
kcat: 3.26 ± 0.218 s⁻¹
kcat/Km: 4670 ± 167 M⁻¹ s⁻¹
